Measured values taken from the supplement of paper PMC10567573.

B1: ELF3 (parent)
chain: RLVYKFGKNSSGWKEEEVLQSRN
B2: MMP1 (parent)
chain: FVRGDHRDNSPFDGPGGNLAHAFQ

Variants of: B1
Assay: protein stability index of a GFP-peptide fusion (GPS, HEK-293T) (PSI 1-6); higher = more stable
Details: c terminus: native
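Further: lentivirally expressed fusions sorted by FACS into six bins by GFP to DsRed ratio, PSI derived from sequencing read proportions per bin multiplied by bin number.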

Protein stability index: each site, then its substitutions
F6: P 3.47, G 3.75, E 4.52, I 2.26, C 1.42, H 3.29, N 3.65, A 3.69, D 4.7, L 1.61, Q 3.08, K 3.53
R1: E 3.17, G 2.87, T 2.18, M 2.4, V 1.24, P 3.7, C 2.32, F 2.22, L 1.83, N 3, A 2.54, I 1.62, Q 2.67, H 2.72, Y 1.69, S 1.69, K 2.55
Y4: G 2.69, R 1.23, E 3.47, D 3.73, K 3.36, H 3.8, L 1.83, A 3.39, T 3.06, N 3.13, V 2.82, S 2.42, M 2.55, P 3.43, F 2.35, C 1.95, I 2.12, Q 3.16
V3: M 2.38, F 2.38, Y 2.37, K 2.49, T 2.86, D 4.2, H 2.53, G 2.48, S 2.7, R 2.75, P 2.63, E 4.75, C 1.71, A 3.88, L 1.9, N 3.46
K5: V 1.95, P 1.89, C 2.52, H 1.98, N 2.39, Q 2.09, M 1.91, A 1.76, I 1.36, Y 2.16, T 2.14, S 2.5, D 2.8, E 2.89, R 1.05, L 2.75
L2: F 2.79, H 3.38, D 4.22, A 3.2, T 2.84, Q 3.04, C 2.29, N 3.41, I 2.45, W 1.58, E 4.2, K 2.31, M 2.99, P 2.66, V 2.71, S 2.93, G 2.78, Y 1.85, R 2.87

Variants of: B2
Assay: as above
Details: c terminus: a fixed tail appended

Protein stability index, by site and new letter:
Q24: F 2.78, H 1.84, C 1.72, S 1.02, P 1.97, G 1.99, R 1.63, E 3.81, A 1.88, M 2.73, N 1.62, L 1.93, V 2.39, K 1.6, D 2.75, Y 3.94, T 3.41
A22: W 1.68, R 2.58, L 1.74, K 2.42, Q 1.46, C 1.98, V 1.53, M 2.4, I 2.06, P 3.37, E 1.38, T 2.31, D 2.44, S 1.91, G 1.58, N 1.75, Y 2.34, H 2, F 2.25
F23: W 2.74, A 1.78, Y 2.12, C 1.38, G 2.12, T 1.56, N 1.73, Q 2.11, P 2.63, V 1.99, M 2.25, E 2.38, S 1.88, R 2.03, I 2.33, L 1.89, K 2.45, H 2.08, D 1.9
H21: R 1.33, I 2.7, Q 1.62, G 1.81, N 2.15, K 1.95, P 1.47, S 2.2, L 1.57, V 1.6, T 2.1, Y 2.91, M 2.01, F 2.31
